Experimental data taken from US20190389957A1 (SINGAPORE HEALTH SERVICES PTE, published 2019).
Substitutions are numbered along the chain they refer to. Each block holds one molecule with its values, some of them ahead of it.

What was measured:
[1] = molecular target: Human IL-11, endogenously produced by TGFβ1-stimulated human cells (human) (UniProt P20809); test: cell-based or functional assay
[2] = molecular target: Mouse IL-11, endogenously produced by TGFβ1-stimulated mouse atrial fibroblasts (mouse) (UniProt P47873); test: cell-based or functional assay
Chain of Mouse IL-11, endogenously produced by TGFβ1-stimulated mouse atrial fibroblasts (mouse) (P47873 22-199 limits assumed): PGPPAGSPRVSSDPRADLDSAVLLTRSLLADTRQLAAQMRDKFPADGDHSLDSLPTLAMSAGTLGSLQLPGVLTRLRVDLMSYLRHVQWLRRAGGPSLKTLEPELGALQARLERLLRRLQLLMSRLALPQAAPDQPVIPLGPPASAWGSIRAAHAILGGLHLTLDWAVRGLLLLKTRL

[3] = molecular target: T1, IL-11:IL-11Rα fusion protein (hyper IL-11); test: cell-based or functional assay
T1 chain: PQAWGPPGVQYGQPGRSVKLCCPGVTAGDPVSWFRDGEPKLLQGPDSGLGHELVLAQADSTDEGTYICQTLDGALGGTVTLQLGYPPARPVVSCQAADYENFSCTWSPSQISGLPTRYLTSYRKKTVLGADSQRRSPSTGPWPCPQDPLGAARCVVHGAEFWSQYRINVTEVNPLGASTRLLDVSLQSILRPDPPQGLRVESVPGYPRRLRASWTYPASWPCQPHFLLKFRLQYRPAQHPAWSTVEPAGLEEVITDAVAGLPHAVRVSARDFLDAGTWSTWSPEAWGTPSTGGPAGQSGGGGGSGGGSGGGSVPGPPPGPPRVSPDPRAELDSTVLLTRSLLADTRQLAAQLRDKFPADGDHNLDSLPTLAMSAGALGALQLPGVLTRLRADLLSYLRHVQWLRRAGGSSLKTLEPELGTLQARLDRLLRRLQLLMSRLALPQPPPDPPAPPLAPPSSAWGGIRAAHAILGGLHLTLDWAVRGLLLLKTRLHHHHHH

[4] = molecular target: T2, Human IL-11Rα endogenously expressed on primary human cells (human, UniProt Q14626 23-422); test: cell-based or functional assay
T2 sequence (looked up): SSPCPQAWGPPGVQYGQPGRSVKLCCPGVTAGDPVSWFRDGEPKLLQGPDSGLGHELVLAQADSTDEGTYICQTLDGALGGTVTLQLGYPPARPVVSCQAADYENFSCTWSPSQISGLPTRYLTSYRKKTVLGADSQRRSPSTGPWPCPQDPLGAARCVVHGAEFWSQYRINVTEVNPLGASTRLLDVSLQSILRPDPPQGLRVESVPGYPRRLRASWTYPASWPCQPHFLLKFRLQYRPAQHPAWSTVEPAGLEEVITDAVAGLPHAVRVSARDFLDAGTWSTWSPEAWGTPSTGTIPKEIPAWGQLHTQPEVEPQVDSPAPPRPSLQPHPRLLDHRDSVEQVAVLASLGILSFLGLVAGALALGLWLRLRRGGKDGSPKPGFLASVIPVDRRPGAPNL

[5] = molecular target: T3, Recombinant human IL-11Rα (Sino Biological Cat. No. 10252-H08H) (human, UniProt Q14626 23-363); test: SPR, BIAcore T200, multi-cycle kinetics; recombinant human IL-11Rα immobilised, antibody (IgG1 format) flowed at 50 to 1.56 nM; 1:1 model; analysis (2); Chi2 0.0356 RU2
T3 construct: Bought protein, immobilised on the chip
T3 sequence (looked up): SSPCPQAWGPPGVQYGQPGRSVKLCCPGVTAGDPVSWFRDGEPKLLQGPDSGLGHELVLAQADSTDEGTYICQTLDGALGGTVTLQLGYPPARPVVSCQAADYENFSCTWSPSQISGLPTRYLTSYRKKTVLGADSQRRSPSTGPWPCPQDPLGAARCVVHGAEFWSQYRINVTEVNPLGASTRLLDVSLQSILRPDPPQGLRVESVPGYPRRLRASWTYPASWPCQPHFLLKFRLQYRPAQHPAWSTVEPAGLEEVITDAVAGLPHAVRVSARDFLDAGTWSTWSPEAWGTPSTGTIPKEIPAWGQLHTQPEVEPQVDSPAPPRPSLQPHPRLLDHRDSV

[6] = molecular target: T4, IL-11Rα as used in the Biacore kinetics of Example 14 (UniProt Q14626 23-363, limits assumed); test: SPR (Biacore T200), multi-cycle kinetics, 25 C, HBS-P+ pH 7.4 with 0.1% BSA
T4 sequence (looked up): T3 sequence (looked up)
Experimental: The six antibodies were assessed by multi-cycle kinetics analysis at a final concentration of 1 μg/ml, run at 25° C. with HBS-P+ running buffer (pH 7.4) containing 0.1% BSA using a Biacore T200 instrument.
The relative KD was calculated by dividing the KD of the humanised variant by that of the 9A7 antibody assayed in the same experiment. All six humanised antibodies bound to IL-11R within two-fold of 9A7 (SEQ ID NO:7 and 13).

[7] = molecular target: T2, Human IL-11Rα endogenously expressed on …; test: cell-based or functional assay; remark: listed apart in the source
[8] = molecular target: Tagged human IL-11Rα expressed at the surface of transiently transfected cells (human) (UniProt Q14626); test: flow cytometry of subcloned hybridoma supernatant on cells transiently transfected with FLAG-tagged human IL-11Rα (sheet head: 'cells transfected with pB1-IL11-hum.FL', 'flow cytometry (Attunes)'); fluorescent anti-mouse IgG secondary; negative control GMFI 930
[9] = molecular target: T3, Recombinant human IL-11Rα (Sino …); test: SPR, BIAcore T200, multi-cycle kinetics; recombinant human IL-11Rα immobilised, antibody (IgG1 format) flowed at 100 to 1.56 nM; 1:1 model; analysis (1); Chi2 0.181 RU2
[10] = molecular target: T2, Human IL-11Rα endogenously expressed on …; test: cell-based or functional assay; remark: listed apart in the source
[11] = molecular target: T2, Human IL-11Rα endogenously expressed on …; test: cell-based or functional assay; remark: listed apart in the source
[12] = molecular target: T2, Human IL-11Rα endogenously expressed on …; test: cell-based or functional assay; remark: listed apart in the source
[13] = molecular target: Tagged human IL-11Rα expressed at the surface of transiently transfected cells (human) (UniProt Q14626); test: same assay; by the legend the percent is the strength of binding relative to the anti-FLAG positive control (100%); negative control 3%
[14] = molecular target: T5, Mouse IL-11Rα endogenously expressed on primary mouse fibroblasts (mouse, UniProt Q64385 24-432); test: cell-based or functional assay
T5 sequence (looked up): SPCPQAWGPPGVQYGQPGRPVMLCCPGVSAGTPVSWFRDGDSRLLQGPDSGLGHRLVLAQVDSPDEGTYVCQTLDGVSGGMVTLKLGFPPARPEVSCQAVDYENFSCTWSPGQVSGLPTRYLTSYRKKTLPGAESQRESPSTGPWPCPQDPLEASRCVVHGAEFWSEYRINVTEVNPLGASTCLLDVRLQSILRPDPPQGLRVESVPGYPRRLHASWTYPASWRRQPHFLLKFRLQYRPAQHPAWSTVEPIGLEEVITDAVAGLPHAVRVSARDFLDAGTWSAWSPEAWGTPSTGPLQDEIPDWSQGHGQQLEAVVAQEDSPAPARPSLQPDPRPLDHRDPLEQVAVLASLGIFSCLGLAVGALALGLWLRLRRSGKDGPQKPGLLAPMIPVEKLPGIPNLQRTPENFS

[15] = molecular target: T1, IL-11:IL-11Rα fusion protein (hyper …); test: cell-based or functional assay
[16] = molecular target: T2, Human IL-11Rα endogenously expressed on …; test: cell-based or functional assay; remark: listed apart in the source

Molecule: Commercial monoclonal mouse anti-IL-11 antibody (Monoclonal Mouse IgG2A; Clone #22626; Catalog No. MAB218; R&D Systems)
fold change in percentage of αSMA-positive (activated) human atrial fibroblasts against unstimulated cultures, TGFβ1 5 ng/ml, 24 h [1]: 0.89 fold | fold change in percentage of αSMA-positive (activated) mouse atrial fibroblasts against unstimulated cultures, TGFβ1, 24 h [2]: 1.44 fold

B1: Anti-IL-11Rα antibody clone BSO-9A7 (antibody, V domains shown)
VH: QVQLQQPGAELVRPGSSVKLSCKASGYTFTNYWMHWLKQRPVQGLEWIGNIGPSDSKTHYNQKFKDKATLTVDKSSSTAYMQLNSLTSEDSAVYYCARGDYVLFTYWGQGTLVTVSA
VL: DIVLTQSPATLSMTPGDSVSLSCRASQSISNNLHWYQQKSHESPRLLIKYASQSISGIPSRFSGSGSGTDFTLSFNSVETEDFGVYFCQQSYSWPLTFGAGTKLELK
notes: also called RA7; 9A7 VH/VL
IC50 of inhibition of MMP2 secretion, human atrial fibroblasts + IL-11:IL11RA (hyper IL-11) 0.2 ng/ml (panel 'MMP2 - IL-11:IL11RA - 9A7') [3]: 0.246 µg/mL | IC50 of inhibition of TIMP1 secretion, human atrial fibroblasts + IL-11:IL11RA (hyper IL-11) 0.2 ng/ml (panel 'TIMP1 - IL-11:IL11RA - 9A7') [3]: 0.196 µg/mL | IC50 of inhibition of MMP2 secretion, primary human hepatic stellate cells + TGFB1 5 ng/ml (endogenous IL-11); upper panel [4]: 0.00093 µg/mL | IC50 of inhibition of MMP2 secretion, primary human hepatic stellate cells + exogenous IL-11 2 ng/ml; lower panel [4]: 0.00164 µg/mL | Kd [5]: 5.46 nM | koff [5]: 0.000875 s⁻¹ | kon [5]: 160000 M⁻¹ s⁻¹ | Kd [6]: 4.29 nM | koff [6]: 0.000926 s⁻¹ | kon [6]: 216000 M⁻¹ s⁻¹ | relative KD (KD divided by KD of 9A7) [6]: 1 ratio to 9A7 | IC50 of inhibition of MMP2 secretion by HSCs stimulated with TGFβ1 (5 ng/ml, 24 h) [7]: 0.0054 nM | GMFI [8]: 34800 | Kd [9]: 7.85 nM | koff [9]: 0.000759 s⁻¹ | kon [9]: 96600 M⁻¹ s⁻¹ | IC50 of inhibition of MMP2 secretion, human atrial fibroblasts + TGFB1 5 ng/ml, 24 h (panel 'MMP2 - TGFB - 9A7') [10]: 0.082 µg/mL | IC50 of inhibition of TIMP1 secretion, human atrial fibroblasts + TGFB1 5 ng/ml, 24 h (panel 'TIMP1 - TGFB - 9A7') [10]: 0.0974 µg/mL | IC50 of inhibition of TIMP1 secretion, primary human lung fibroblasts + TGFB1 5 ng/ml (panel '9A7') [11]: 0.00229 µg/mL | IC50 of inhibition of MMP2 secretion, primary human atrial fibroblasts + TGFβ1 (panel '9A7') [12]: 0.00588 µg/mL | % positive [13]: 111% | IC50 of inhibition of MMP2 secretion, primary mouse cardiac fibroblasts + TGFB1 5 ng/ml (endogenous IL-11) (panel 'TGFB1-driven MMP2 secretion') [14]: 0.0146 µg/mL | IC50 of inhibition of MMP2 secretion, primary mouse cardiac fibroblasts + exogenous IL-11 2 ng/ml (panel 'IL-11-driven MMP2 secretion') [14]: 0.0292 µg/mL | IC50 of inhibition of MMP2 secretion, primary mouse cardiac fibroblasts + IL-11:IL11RA (hyper IL-11) 0.2 ng/ml (panel 'IL-11:IL11RA-driven MMP2 secretion') [15]: 0.0351 µg/mL

B2: Humanised BSO-9A7 variant VH3/VL3 (antibody, V domains shown)
VH: QVQLVQSGAEVKKPGASVKVSCKASGYTFTNYWMHWLRQRPGQGLEWIGNIGPSDSKTHYNQKFKDRATLTVDKSTSTAYMELSSLRSEDTAVYYCARGDYVLFTYWGQGTLVTVSS
VL: DIVLTQSPATLSLSPGERATLSCRASQSISNNLHWYQQKPGQAPRLLIKYASQSISGIPARFSGSGSGTDFTLTISSLEPEDFAVYFCQQSYSWPLTFGQGTKLEIK
notes: Variable domains only
Kd [6]: 3.61 nM | koff [6]: 0.000751 s⁻¹ | kon [6]: 208000 M⁻¹ s⁻¹ | relative KD (KD divided by KD of 9A7) [6]: 0.84 ratio to 9A7 | IC50 of inhibition of MMP2 secretion, human hepatic stellate cells + TGFβ1 5 ng/ml (panel 'VH3/VL3') [16]: 0.0233 µg/mL | IC50 of inhibition of TIMP1 secretion, primary human lung fibroblasts + TGFB1 5 ng/ml (panel 'VH3/VL3') [11]: 0.0274 µg/mL | IC50 of inhibition of MMP2 secretion, primary human atrial fibroblasts + TGFβ1 (panel 'VH3/VL3') [12]: 0.0326 µg/mL

Second part, the molecule after the results:

Kd [6]: 5.67 nM | koff [6]: 0.000932 s⁻¹ | kon [6]: 164000 M⁻¹ s⁻¹ | relative KD (KD divided by KD of 9A7) [6]: 1.32 ratio to 9A7 | IC50 of inhibition of MMP2 secretion, primary human atrial fibroblasts + TGFβ1 (panel 'VH4/VL2') [12]: 0.0111 µg/mL
B3: Humanised BSO-9A7 variant VH4/VL2 (antibody, V domains shown)
VH: B2 VH with A68V, L70M
VL: B2 VL with P40S, P80T
notes: Variable domains only

Kd [6]: 3.71 nM | koff [6]: 0.000747 s⁻¹ | kon [6]: 201000 M⁻¹ s⁻¹ | relative KD (KD divided by KD of 9A7) [6]: 0.86 ratio to 9A7
B4: Humanised BSO-9A7 variant VH3/VL4 (antibody, V domains shown)
VH: B2 VH
VL: B2 VL with F87Y
notes: Variable domains only

Kd [6]: 5.55 nM | koff [6]: 0.000781 s⁻¹ | kon [6]: 141000 M⁻¹ s⁻¹ | relative KD (KD divided by KD of 9A7) [6]: 1.29 ratio to 9A7 | IC50 of inhibition of MMP2 secretion, human hepatic stellate cells + TGFβ1 5 ng/ml (panel 'VH4/VL4') [16]: 0.00315 µg/mL | IC50 of inhibition of TIMP1 secretion, primary human lung fibroblasts + TGFB1 5 ng/ml (panel 'VH4/VL4') [11]: 0.00419 µg/mL
B5: Humanised BSO-9A7 variant VH4/VL4 (antibody, V domains shown)
VH: B2 VH with A68V, L70M
VL: B2 VL with F87Y
notes: Variable domains only; also called printed once as VH4/VH4

Kd [6]: 5.57 nM | koff [6]: 0.000992 s⁻¹ | kon [6]: 178000 M⁻¹ s⁻¹ | relative KD (KD divided by KD of 9A7) [6]: 1.3 ratio to 9A7 | IC50 of inhibition of MMP2 secretion, primary human atrial fibroblasts + TGFβ1 (panel 'VH4/VL3') [12]: 0.0647 µg/mL
B6: Humanised BSO-9A7 variant VH4/VL3 (antibody, V domains shown)
VH: B2 VH with A68V, L70M
VL: B2 VL
notes: Variable domains only

Kd [6]: 3.63 nM | koff [6]: 0.000801 s⁻¹ | kon [6]: 221000 M⁻¹ s⁻¹ | relative KD (KD divided by KD of 9A7) [6]: 0.85 ratio to 9A7
B7: Humanised BSO-9A7 variant VH3/VL2 (antibody, V domains shown)
VH: B2 VH
VL: B2 VL with P40S, P80T
notes: T0003 heads the columns 'Heavy chain' and 'Light chain', but the entries are variable domains
